Series [1] has as its system HeLa Kyoto. The experiment in a line: solubility in G1/S (NP-40 vs SDS abundance) (log2 ratio); higher = more soluble. The settings on record: cell cycle stage: G1/S.
Series [2] has as its system HeLa Kyoto. The experiment in a line: melting temperature (median over replicates), in situ; higher = more thermally stable.
In series [3] the test system is HeLa Kyoto. As to the kind of experiment: solubility change mitosis vs G1/S (difference of NP-40 vs SDS log2 ratios) (log2 ratio difference); higher = more soluble in mitosis.
Series [4] has as its system HeLa Kyoto. The experiment in a line: thermal stability score vs G1/S (z-score of summed log2 fold changes over temperatures); higher = more thermally stable than in G1/S.
The mark [5] stands for this setting: cell cycle stage: early G1 (4.5 h after nocodazole release).
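Wherever melting temperature (median over replicates), in situ is given: HeLa Kyoto cells synchronized by double thymidine or nocodazole block, proteins quantified by TMT10plex mass spectrometry, three independent biological replicates.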
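Wherever solubility change mitosis vs G1/S (difference of NP-40 vs SDS log2 ratios) is given: synchronized HeLa Kyoto cells (double thymidine block for G1/S, nocodazole release for mitosis), protein amounts in NP-40 versus SDS lysates quantified by mass spectrometry, three biological replicates.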
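Wherever solubility in G1/S (NP-40 vs SDS abundance) is given: HeLa Kyoto cells arrested at G1/S by double thymidine block, proteins quantified by TMT10plex mass spectrometry in mild NP-40 versus SDS extracts, three biological replicates.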
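Wherever thermal stability score vs G1/S (z-score of summed log2 fold changes over temperatures) is given: synchronized HeLa Kyoto cells, proteins quantified by TMT10plex mass spectrometry, three biological replicates, mitosis taken 0.5 h after nocodazole release, G1/S directly after double thymidine block.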

For the sequence “MADESETAVKPPAPPLPQMMEGNGNGHEHCSDCENEEDNSYNRGGLSPANDTGAKKKKKKQKKKKEKGSETDSAQDQPVKMNSLPAERIQEIQKAIELFSVGQGPAKTMEEASKRSYQFWDTQPVPKLGEVVNTHGPVEPDKDNIRQEPYTLPQGFTWDALDLGDRGVLKELYTLLNENYVEDDDNMFRFDYSPEFLLWALRPPGWLPQWHCGVRVVSSRKLVGFISAIPANIHIYDTEKKMVEINFLCVHKKLRSKRVAPVLIREITRRVHLEGIFQAVYTAGVVLPKPVGTCRYWHRSLNPRKLIEVKFSHLSRNMTMQRTMKLYRLPETPKTAGLRPMETKDIPVVHQLLTRYLKQFHLTPVMSQEEVEHWFYPQENIIDTFVVENANGEVTDFLSFYTLPSTIMNHPTHKSLKAAYSFYNVHTQTPLLDLMSDALVLAKMKGFDVFNALDLMENKTFLEKLKFGIGDGNLQYYLYNWKCPSMGAEKVGLVLQ [NMT1]”, the “solubility in G1/S (log2)” value in the series with HeLa Kyoto [1] was -0.131. For the same sequence, the melting temperature came out at 53.9 °C in the series with HeLa Kyoto [2] (cell cycle stage: G1/S) and 53.5 °C in the series with HeLa Kyoto [2] (cell cycle stage: mitosis). In addition, the “solubility change mitosis (log2)” value in the series with HeLa Kyoto [3] worked out at 0.1. The thermal stability score in the series with HeLa Kyoto [4] (setting [5]) was -0.333; in the series on HeLa Kyoto [4] (cell cycle stage: mitosis), -0.823.

On to “MADGDSGSERGGGGGPCGFQPASRGGGEQETQELASKRLDIQNKRFYLDVKQNAKGRFLKIAEVGAGGSKSRLTLSMAVAAEFRDSLGDFIEHYAQLGPSSPEQLAAGAEEGGGPRRALKSEFLVRENRKYYLDLKENQRGRFLRIRQTVNRGGGGFGAGPGPGGLQSGQTIALPAQGLIEFRDALAKLIDDYGGEDDELAGGPGGGAGGPGGGLYGELPEGTSITVDSKRFFFDVGCNKYGVFLRVSEVKPSYRNAITVPFKAWGKFGGAFCRYADEMKEIQERQRDKLYERRGGGSGGGEESEGEEVDED [PURB]”, for which the “solubility in G1/S (log2)” value in the series with HeLa Kyoto [1] came out at 0.381. The melting temperature in the series on HeLa Kyoto [2] (cell cycle stage: G1/S) stood at 54.2 °C; in the series on HeLa Kyoto [2] (cell cycle stage: mitosis), 54.1 °C. Besides, in the series on HeLa Kyoto [3], the “solubility change mitosis (log2)” value was 0.0319. Besides, the thermal stability score in the series with HeLa Kyoto [4] (setting [5]) was -1.12; in the series with HeLa Kyoto [4] (cell cycle stage: mitosis), -5.37.

Turning to “MADGGSERADGRIVKMEVDYSATVDQRLPECAKLAKEGRLQEVIETLLSLEKQTRTASDMVSTSRILVAVVKMCYEAKEWDLLNENIMLLSKRRSQLKQAVAKMVQQCCTYVEEITDLPIKLRLIDTLRMVTEGKIYVEIERARLTKTLATIKEQNGDVKEAASILQELQVETYGSMEKKERVEFILEQMRLCLAVKDYIRTQIISKKINTKFFQEENTEKLKLKYYNLMIQLDQHEGSYLSICKHYRAIYDTPCIQAESEKWQQALKSVVLYVILAPFDNEQSDLVHRISGDKKLEEIPKYKDLLKLFTTMELMRWSTLVEDYGMELRKGSLESPATDVFGSTEEGEKRWKDLKNRVVEHNIRIMAKYYTRITMKRMAQLLDLSVDESEAFLSNLVVNKTIFAKVDRLAGIINFQRPKDPNNLLNDWSQKLNSLMSLVNKTTHLIAKEEMIHNLQ [PSMD12]”, in the series with HeLa Kyoto [1], the “solubility in G1/S (log2)” value is 0.0925. Further, the values for the melting temperature in the series on HeLa Kyoto [2] (cell cycle stage: G1/S) and in the series on HeLa Kyoto [2] (cell cycle stage: mitosis) were 52.3 °C and 51.6 °C, respectively. The “solubility change mitosis (log2)” value in the series on HeLa Kyoto [3] was -0.104. For the same sequence, the thermal stability score with HeLa Kyoto [4] (setting [5]) was found to be 2.61; in the series with HeLa Kyoto [4] (cell cycle stage: mitosis), 2.56.

For the sequence “MADHVQSLAQLENLCKQLYETTDTTTRLQAEKALVEFTNSPDCLSKCQLLLERGSSSYSQLLAATCLTKLVSRTNNPLPLEQRIDIRNYVLNYLATRPKLATFVTQALIQLYARITKLGWFDCQKDDYVFRNAITDVTRFLQDSVEYCIIGVTILSQLTNEINQADTTHPLTKHRKIASSFRDSSLFDIFTLSCNLLKQASGKNLNLNDESQHGLLMQLLKLTHNCLNFDFIGTSTDESSDDLCTVQIPTSWRSAFLDSSTLQLFFDLYHSIPPSFSPLVLSCLVQIASVRRSLFNNAERAKFLSHLVDGVKRILENPQSLSDPNNYHEFCRLLARLKSNYQLGELVKVENYPEVIRLIANFTVTSLQHWEFAPNSVHYLLSLWQRLAASVPYVKATEPHMLETYTPEVTKAYITSRLESVHIILRDGLEDPLEDTGLVQQQLDQLSTIGRCEYEKTCALLVQLFDQSAQSYQELLQSASASPMDIAVQEGRLTWLVYIIGAVIGGRVSFASTDEQDAMDGELVCRVLQLMNLTDSRLAQAGNEKLELAMLSFFEQFRKIYIGDQVQKSSKLYRRLSEVLGLNDETMVLSVFIGKIITNLKYWGRCEPITSKTLQLLNDLSIGYSSVRKLVKLSAVQFMLNNHTSEHFSFLGINNQSNLTDMRCRTTFYTALGRLLMVDLGEDEDQYEQFMLPLTAAFEAVAQMFSTNSFNEQEAKRTLVGLVRDLRGIAFAFNAKTSFMMLFEWIYPSYMPILQRAIELWYHDPACTTPVLKLMAELVHNRSQRLQFDVSSPNGILLFRETSKMITMYGNRILTLGEVPKDQVYALKLKGISICFSMLKAALSGSYVNFGVFRLYGDDALDNALQTFIKLLLSIPHSDLLDYPKLSQSYYSLLEVLTQDHMNFIASLEPHVIMYILSSISEGLTALDTMVCTGCCSCLDHIVTYLFKQLSRSTKKRTTPLNQESDRFLHIMQQHPEMIQQMLSTVLNIIIFEDCRNQWSMSRPLLGLILLNEKYFSDLRNSIVNSQPPEKQQAMHLCFENLMEGIERNLLTKNRDRFTQNLSAFRREVNDSMKNSTYGVNSNDMMS [XPO7]”, in the series with HeLa Kyoto [1], the “solubility in G1/S (log2)” value is -0.0594. The melting temperature in the series with HeLa Kyoto [2] (cell cycle stage: G1/S) and in the series with HeLa Kyoto [2] (cell cycle stage: mitosis) was 52.2 °C each time. In the series with HeLa Kyoto [3], the “solubility change mitosis (log2)” value was -0.207. For the same sequence, the thermal stability score is 0.0845 in the series with HeLa Kyoto [4] (setting [5]) and 0.043 with HeLa Kyoto [4] (cell cycle stage: mitosis).

(Values after the supplement of paper PMC5998384.)
